Data reported in patent US20200317768A1 (published 2020).
Substitutions are numbered along the chain they refer to.

B1: MS_M103205H795-SG1/M103202L889-SK1 (antibody, human IgG1, kappa)
heavy: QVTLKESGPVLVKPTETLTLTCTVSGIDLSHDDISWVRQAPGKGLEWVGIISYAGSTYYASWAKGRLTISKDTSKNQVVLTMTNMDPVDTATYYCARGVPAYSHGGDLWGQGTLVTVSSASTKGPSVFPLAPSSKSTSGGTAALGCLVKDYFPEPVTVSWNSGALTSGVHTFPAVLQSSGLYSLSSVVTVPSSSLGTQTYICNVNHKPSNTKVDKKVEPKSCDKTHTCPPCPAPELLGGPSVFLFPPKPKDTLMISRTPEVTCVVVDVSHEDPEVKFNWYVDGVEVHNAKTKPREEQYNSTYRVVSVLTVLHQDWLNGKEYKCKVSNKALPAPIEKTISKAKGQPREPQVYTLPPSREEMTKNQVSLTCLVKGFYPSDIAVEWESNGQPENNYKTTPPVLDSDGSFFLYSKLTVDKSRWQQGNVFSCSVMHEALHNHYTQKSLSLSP
light: DIVMTQSPATLSLSPGERATLSCTSSQSVYHANWLSWFQQKPGQPPKLLIYWASTLAYGVPSRFSGSGSGTDFTLTISSLQPEDAATYYCAGGYGGGRYAFGQGTKVEIKRTVAAPSVFIFPPSDEQLKSGTASVVCLLNNFYPREAKVQWKVDNALQSGNSQESVTEQDSKDSTYSLSSTLTLSKADYEKHKVYACEVTHQGLSSPVTKSFNRGEC
notes: Parent of the Fc variants; also called MS1032LO06-SG1
B2: M103205H795-MY050/M103202L889-SK1 (antibody, human IgG1, kappa)
heavy: QVTLKESGPVLVKPTETLTLTCTVSGIDLSHDDISWVRQAPGKGLEWVGIISYAGSTYYASWAKGRLTISKDTSKNQVVLTMTNMDPVDTATYYCARGVPAYSHGGDLWGQGTLVTVSSASTKGPSVFPLAPSSKSTSGGTAALGCLVKDYFPEPVTVSWNSGALTSGVHTFPAVLQSSGLYSLSSVVTVPSSSLGTQTYICNVNHKPSNTKVDKKVEPKSCDKTHTCPPCPAPELLNGPSVFLFPPKPKDTLMISRTPEVTCVVVDVAEEDPEVKFNWYVDGVEVHNAKTKPREEQYNSTYRVVSVLTVLHQDWLNGKEYKCKVSNKALPAPIEKTISKAKGQPREPQVYTLPPSREEMTKNQVSLTCLVKGFYPSDIAVEWESNGQPENNYKTTPPVLDSDGSFFLYSKLTVDKSRWQQGNVFSCSVMHEALHNHYTQKSLSLSP
light: B1 light
notes: Substitutions introduced into M103205H795-SG1; expressed with M103202L889-SK1 as light chain
B3: M103205H795-MY049/M103202L889-SK1 (antibody, human IgG1, kappa)
heavy: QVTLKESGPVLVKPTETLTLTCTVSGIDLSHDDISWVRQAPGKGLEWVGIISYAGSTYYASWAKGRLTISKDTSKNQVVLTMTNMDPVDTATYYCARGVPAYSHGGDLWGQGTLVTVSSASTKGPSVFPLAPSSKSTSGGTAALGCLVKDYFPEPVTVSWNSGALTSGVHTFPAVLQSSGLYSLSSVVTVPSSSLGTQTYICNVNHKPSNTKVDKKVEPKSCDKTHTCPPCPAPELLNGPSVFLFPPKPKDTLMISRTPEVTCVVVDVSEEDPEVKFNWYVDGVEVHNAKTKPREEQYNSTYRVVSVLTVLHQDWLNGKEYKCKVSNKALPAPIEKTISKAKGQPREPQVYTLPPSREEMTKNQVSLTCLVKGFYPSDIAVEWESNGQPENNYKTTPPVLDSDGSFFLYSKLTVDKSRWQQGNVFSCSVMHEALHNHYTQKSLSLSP
light: B1 light
notes: as for B2
B4: M103205H795-MY105/M103202L889-SK1 (antibody, human IgG1, kappa)
heavy: B2 heavy with S241V, A269S, P398M
light: B1 light
notes: as for B2
B5: M103205H795-MY048/M103202L889-SK1 (antibody, human IgG1, kappa)
heavy: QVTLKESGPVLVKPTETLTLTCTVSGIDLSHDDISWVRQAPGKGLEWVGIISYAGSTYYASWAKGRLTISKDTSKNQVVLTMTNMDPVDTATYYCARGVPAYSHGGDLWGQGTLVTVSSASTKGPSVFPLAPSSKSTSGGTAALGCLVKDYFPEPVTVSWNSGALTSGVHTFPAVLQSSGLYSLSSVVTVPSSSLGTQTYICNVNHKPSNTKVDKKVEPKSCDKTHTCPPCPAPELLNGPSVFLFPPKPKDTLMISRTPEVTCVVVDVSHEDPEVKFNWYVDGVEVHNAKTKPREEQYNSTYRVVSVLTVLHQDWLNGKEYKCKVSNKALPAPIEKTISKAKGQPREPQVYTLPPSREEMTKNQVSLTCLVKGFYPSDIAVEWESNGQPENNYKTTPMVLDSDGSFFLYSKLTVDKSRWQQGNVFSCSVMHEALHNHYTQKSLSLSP
light: B1 light
notes: as for B2
B6: M103205H795-MY051/M103202L889-SK1 (antibody, human IgG1, kappa)
heavy: B2 heavy with A269S, P273G
light: B1 light
notes: as for B2
B7: M103205H795-MY001/M103202L889-SK1 (antibody, human IgG1, kappa)
heavy: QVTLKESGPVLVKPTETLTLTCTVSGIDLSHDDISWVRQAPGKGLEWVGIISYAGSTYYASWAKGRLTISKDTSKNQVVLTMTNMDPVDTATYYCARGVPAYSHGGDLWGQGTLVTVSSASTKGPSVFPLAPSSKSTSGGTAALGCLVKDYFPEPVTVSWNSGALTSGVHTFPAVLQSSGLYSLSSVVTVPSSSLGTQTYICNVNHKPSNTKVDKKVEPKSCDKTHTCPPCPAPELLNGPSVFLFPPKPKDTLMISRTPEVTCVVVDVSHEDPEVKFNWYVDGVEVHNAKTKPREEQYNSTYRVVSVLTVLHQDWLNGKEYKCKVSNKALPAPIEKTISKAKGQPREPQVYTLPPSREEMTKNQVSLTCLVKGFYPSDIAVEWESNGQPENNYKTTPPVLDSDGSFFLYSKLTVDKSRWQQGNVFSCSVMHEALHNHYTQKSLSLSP
light: B1 light
notes: as for B2
B8: M103205H795-MY115/M103202L889-SK1 (antibody, human IgG1, kappa)
heavy: B2 heavy with P398M
light: B1 light
notes: as for B2
B9: M103205H795-MY052/M103202L889-SK1 (antibody, human IgG1, kappa)
heavy: B2 heavy with A269S, P398M
light: B1 light
notes: as for B2
B10: M103205H795-MY117/M103202L889-SK1 (antibody, human IgG1, kappa)
heavy: B2 heavy with L236W, P398M
light: B1 light
notes: as for B2
B11: M103205H795-MY101/M103202L889-SK1 (antibody, human IgG1, kappa)
heavy: B2 heavy with A269S, A332K, P398M
light: B1 light
notes: also called MS1032LO06-MY101
B12: M103205H795-MY047/M103202L889-SK1 (antibody, human IgG1, kappa)
heavy: not shown
light: B1 light
notes: as for B2

What follows are binders tested against T1, human FcγRIIIaV extracellular domain, C-terminal His-tag (human, UniProt P08637 17-208) (assay: SPR (Biacore); KD of SG1 / KD of variant;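 note: relative to parent M103205H795-SG1 carrying the SG1 human heavy chain constant region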).
T1 construct: also called human FcgRIIIaV; FcgRIIIaV
Experimental: (§1) The kinetic analysis of interactions between these antibodies and FcγR was carried out using BIACORE® T200 or BIACORE® 4000 (GE Healthcare). HBS-EP+ (GE Healthcare) was used as the running buffer, and the measurement temperature was set to 25° C. A chip produced by immobilizing Protein A. Protein A/G or mouse anti-human IgG kappa light chain (BD Biosciences) onto a Series S Sensor Chip CM4 or CM5 (GE Healthcare) by the amine-coupling method was used. […] After the measurement, the antibody captured on the chip was washed off by allowing reaction with 10 mM glycine-HCl, pH1.5 and 25 mM NaOH so that the chip was regenerated and used repeatedly. The sensorgrams obtained as measurement results were analyzed by the 1:1 Langmuir binding model using the BIACORE® Evaluation Software to calculate the binding rate constant ka (L/mol/s) and dissociation rate constant kd (l/s), and the dissociation constant KD (mol/L) was calculated from these values. […] Regarding such interactions, KD values were calculated using the following 1:1 binding model described in BIACORE® T100 Software Handbook BR1006-48 Edition AE.
(§2) The behavior of interacting molecules according to the 1:1 binding model on BIACORE® can be described by Equation 1: Req=C·R max/(KD+C)+RI, wherein, Req is a plot of steady-state binding levels to analyte concentration. C is concentration, RI is bulk refractive index contribution in the sample, and Rmax is analyte binding capacity of the surface. When this equation is rearranged, KD can be expressed as Equation 2: KD=C·Rmax/(Req−RI)−C. KD can be calculated by substituting the values of Rmax, RI, and C into Equation 1 or Equation 2. From the current measurement conditions, RI=0, C=2 μmol/L can be used.

T1 sequence (P08637 17-208 F176V): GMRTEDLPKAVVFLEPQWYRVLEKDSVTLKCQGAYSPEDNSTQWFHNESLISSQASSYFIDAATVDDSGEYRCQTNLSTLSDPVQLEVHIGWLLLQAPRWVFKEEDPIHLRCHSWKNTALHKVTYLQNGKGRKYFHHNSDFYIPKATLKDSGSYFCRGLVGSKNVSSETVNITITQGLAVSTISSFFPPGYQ

Binder	KD fold (SG1 = 1) [fold]
B1	1
B2	0.25
B3	0.1
B4	0.14
B5	0.07
B6	0.11
B7	0.04
B8	0.22
B9	0.18
B10	0.1
B11	0.07

Target: T2, cynomolgus monkey FcγRIIIaS extracellular domain, C-terminal His-tag (cynomolgus monkey, UniProt Q8SPW2 21-206 at identity 1.00))
T2 construct: also called cyno FcγRIIIaS; cynoFcγRIIIaS
T2 chain: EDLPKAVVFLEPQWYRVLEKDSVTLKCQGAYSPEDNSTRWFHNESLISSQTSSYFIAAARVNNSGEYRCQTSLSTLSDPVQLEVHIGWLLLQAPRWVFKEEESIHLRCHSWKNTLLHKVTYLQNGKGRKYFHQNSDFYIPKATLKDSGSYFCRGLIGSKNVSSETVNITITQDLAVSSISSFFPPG
Assay: SPR (Biacore); KD of SG1 / KD of variant;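 note: relative to parent M103205H795-SG1 carrying the SG1 human heavy chain constant region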
Experimental: as §1, §2

Binder	KD fold (SG1 = 1) [fold]
B1	1
B2	0.21
B3	0.08
B4	0.28
B5	0.07
B6	0.17
B7	0.05
B12	0.05
B8	0.42
B9	0.14
B10	0.36
B11	0.11

These binders were tested against T3, human FcγRIIaH extracellular domain, C-terminal His-tag (human, UniProt P12318 34-217) (assay: SPR (Biacore); KD of SG1 / KD of variant;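 note: relative to parent M103205H795-SG1 carrying the SG1 human heavy chain constant region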).
T3 construct: also called human FcγRIIa (type H); FcgRIIaH
T3 sequence: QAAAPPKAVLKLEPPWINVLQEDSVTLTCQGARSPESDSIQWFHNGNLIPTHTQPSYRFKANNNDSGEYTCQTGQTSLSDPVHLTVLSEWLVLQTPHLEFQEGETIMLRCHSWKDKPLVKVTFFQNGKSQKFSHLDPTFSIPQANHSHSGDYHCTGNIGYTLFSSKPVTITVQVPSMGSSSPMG
Experimental: as §1, §2

Binder	KD fold (SG1 = 1) [fold]
B1	1
B2	0.5
B3	0.4
B4	0.5
B5	0.6
B6	0.3
B7	0.2
B12	0.2
B8	0.7
B9	0.8
B10	0.8
B11	1.4

Target: T4, cynomolgus monkey FcγRIIa1 extracellular domain, C-terminal His-tag (cynomolgus monkey)
T4 construct: also called cyno FcγRIIa1; cynoFcgRIIa1
T4 chain: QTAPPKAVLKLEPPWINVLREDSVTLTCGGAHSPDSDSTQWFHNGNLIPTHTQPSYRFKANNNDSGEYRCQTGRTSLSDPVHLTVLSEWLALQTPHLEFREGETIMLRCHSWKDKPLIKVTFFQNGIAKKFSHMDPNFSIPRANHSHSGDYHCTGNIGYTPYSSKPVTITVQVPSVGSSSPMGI
Assay: SPR (Biacore); KD of SG1 / KD of variant;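 note: relative to parent M103205H795-SG1 carrying the SG1 human heavy chain constant region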
Experimental: as §1, §2

Binder	KD fold (SG1 = 1) [fold]
B1	1
B2	0.7
B3	1.2
B4	2.7
B5	2.3
B6	0.7
B7	1.1
B12	0.7
B8	1.4
B9	2.8
B10	1.2
B11	2.9

These binders were tested against T5, human FcγRIIb extracellular domain, C-terminal His-tag (human, UniProt P31994 43-217) (assay: SPR (Biacore); KD of SG1 / KD of variant).
T5 construct: also called human FcgRIIb; FcgRIIb
T5 sequence: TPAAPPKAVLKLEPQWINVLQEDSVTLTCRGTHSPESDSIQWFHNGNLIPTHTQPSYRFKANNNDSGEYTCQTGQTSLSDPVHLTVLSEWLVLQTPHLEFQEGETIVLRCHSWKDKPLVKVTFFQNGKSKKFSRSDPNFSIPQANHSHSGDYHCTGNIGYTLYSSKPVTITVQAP
Experimental: as §1, §2

Binder	KD fold (SG1 = 1) [fold]
B1	1
B2	6.1
B3	3.1
B4	8.1
B5	1.4
B6	2.3
B7	0.6
B12	1.2
B8	14.4
B9	6.4
B10	7.7
B11	9.4

Target: T6, cynomolgus monkey FcγRIIa3 extracellular domain, C-terminal His-tag (cynomolgus monkey)
T6 construct: also called cyno FcγRIIa3; cynoFcgRIIa3
T6 chain: T4 chain with P95T, T121A, A128S, H133P, D135N
Assay: SPR (Biacore); KD of SG1 / KD of variant
Experimental: as §1, §2

Binder	KD fold (SG1 = 1) [fold]
B1	1
B2	0.9
B3	2.6
B4	13.1
B5	2.4
B6	0.9
B7	1.1
B12	0.7
B8	2.2
B9	4.4
B10	1.7
B11	4.7

Target: T7, human FcγRIIaR extracellular domain, C-terminal His-tag (human, UniProt P12318 34-217)
T7 construct: also called human FcγRIIa (type R); FcgRIIaR
T7 chain: T3 sequence with H134R
Assay: SPR (Biacore); KD of SG1 / KD of variant
Experimental: as §1, §2

Binder	KD fold (SG1 = 1) [fold]
B1	1
B2	0.7
B3	0.1
B4	0.8
B5	0.4
B6	0.4
B7	0.1
B12	0.5
B8	1.7
B9	0.5
B10	1.1
B11	1.3

Each binder was assayed against T3, human FcγRIIaH extracellular domain, … (assay: SPR (Biacore), antibody captured, FcgR analyte).

Binder	Kd [nM]
B1	690
B2	2100
B3	1800
B4	15000
B5	1100
B6	22000
B7	32
B12	2800
B8	960
B9	630
B10	2200
B11	480

Target: T7, human FcγRIIaR extracellular domain, …
Assay: SPR (Biacore), antibody captured, FcgR analyte

Binder	Kd [nM]
B1	1100
B2	1500
B3	78000
B4	1400
B5	3100
B6	2800
B7	8200
B12	88
B8	640
B9	14000
B10	10000
B11	870
